Results taken from the supplement of paper PMC9112550, “Optimization of the antimicrobial peptide Bac7 by deep mutational scanning” (BMC Biology, 2022).

System: Escherichia coli TOP10
Test: shrunken log2 fold change of peptide-encoding DNA abundance (4.5 h post-induction vs induction); higher = less antimicrobial activity (less host growth inhibition)
Settings: time post-induction: 4.5 h; library: site-saturation at positions 5, 18, 19, 20
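Further: peptides expressed intracellularly from a pBAD plasmid library in pooled LB shake-flask culture, induced with 0.3% L-arabinose, DNA abundance read by NGS, three biological replicates, DESeq2 with apeglm shrinkage.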

RRIRKRPPRLPRPRPRPSNNPRP
shrunken log2 fold change: -0.0375

RRIRKRPPRLPRPRPRPSQSPRP
shrunken log2 fold change: 0.28

RRIRKRPPRLPRPRPRPSRAPRP
shrunken log2 fold change: 0.521

RRIRKRPPRLPRPRPRPSRDPRP
shrunken log2 fold change: 0.0856

RRIRKRPPRLPRPRPRPSSNPRP
shrunken log2 fold change: -0.0818

RRIRKRPPRLPRPRPRPSTKPRP
shrunken log2 fold change: 0.143

RRIRKRPPRLPRPRPRPSTYPRP
shrunken log2 fold change: -0.0529

RRIRKRPPRLPRPRPRPSWAPRP
shrunken log2 fold change: 0.186

RRIRKRPPRLPRPRPRPSYFPRP
shrunken log2 fold change: -0.029

RRIRKRPPRLPRPRPRPSYPPRP
shrunken log2 fold change: -0.435

RRIRKRPPRLPRPRPRPSYYPRP
shrunken log2 fold change: -0.983

RRIRKRPPRLPRPRPRPTADPRP
shrunken log2 fold change: 0.345

RRIRKRPPRLPRPRPRPTCAPRP
shrunken log2 fold change: 0.786

RRIRKRPPRLPRPRPRPTCKPRP
shrunken log2 fold change: 0.347

RRIRKRPPRLPRPRPRPTDIPRP
shrunken log2 fold change: -0.0678

RRIRKRPPRLPRPRPRPTFGPRP
shrunken log2 fold change: 0.0674

RRIRKRPPRLPRPRPRPTFPPRP
shrunken log2 fold change: 0.0736

RRIRKRPPRLPRPRPRPTGCPRP
shrunken log2 fold change: 0.0439

RRIRKRPPRLPRPRPRPTHIPRP
shrunken log2 fold change: 0.328

RRIRKRPPRLPRPRPRPTHQPRP
shrunken log2 fold change: 0.612

RRIRKRPPRLPRPRPRPTIFPRP
shrunken log2 fold change: 0.2

RRIRKRPPRLPRPRPRPTILPRP
shrunken log2 fold change: -0.0105

RRIRKRPPRLPRPRPRPTKDPRP
shrunken log2 fold change: 0.522

RRIRKRPPRLPRPRPRPTLDPRP
shrunken log2 fold change: 0.877

RRIRKRPPRLPRPRPRPTMFPRP
shrunken log2 fold change: 0.165

RRIRKRPPRLPRPRPRPTNDPRP
shrunken log2 fold change: 0.191

RRIRKRPPRLPRPRPRPTPSPRP
shrunken log2 fold change: 0.921

RRIRKRPPRLPRPRPRPTRLPRP
shrunken log2 fold change: 0.537

RRIRKRPPRLPRPRPRPTRMPRP
shrunken log2 fold change: 0.651

RRIRKRPPRLPRPRPRPTSDPRP
shrunken log2 fold change: 0.492

RRIRKRPPRLPRPRPRPTTPPRP
shrunken log2 fold change: 0.427

RRIRKRPPRLPRPRPRPTWIPRP
shrunken log2 fold change: 0.00938

RRIRKRPPRLPRPRPRPTWYPRP
shrunken log2 fold change: -0.0991

RRIRKRPPRLPRPRPRPVACPRP
shrunken log2 fold change: -0.0228

RRIRKRPPRLPRPRPRPVAYPRP
shrunken log2 fold change: -0.109

RRIRKRPPRLPRPRPRPVCGPRP
shrunken log2 fold change: 0.62

RRIRKRPPRLPRPRPRPVCIPRP
shrunken log2 fold change: 0.0558

RRIRKRPPRLPRPRPRPVEIPRP
shrunken log2 fold change: 0.0372

RRIRKRPPRLPRPRPRPVFVPRP
shrunken log2 fold change: 0.141

RRIRKRPPRLPRPRPRPVHKPRP
shrunken log2 fold change: 0.288

RRIRKRPPRLPRPRPRPVHRPRP
shrunken log2 fold change: -0.0578

RRIRKRPPRLPRPRPRPVILPRP
shrunken log2 fold change: -0.612

RRIRKRPPRLPRPRPRPVLYPRP
shrunken log2 fold change: -0.0796

RRIRKRPPRLPRPRPRPVMVPRP
shrunken log2 fold change: 0.315

RRIRKRPPRLPRPRPRPVMYPRP
shrunken log2 fold change: -0.144

RRIRKRPPRLPRPRPRPVNCPRP
shrunken log2 fold change: -0.112

RRIRKRPPRLPRPRPRPVNDPRP
shrunken log2 fold change: 0.00208

RRIRKRPPRLPRPRPRPVNIPRP
shrunken log2 fold change: -0.0139

RRIRKRPPRLPRPRPRPVNQPRP
shrunken log2 fold change: -0.145

RRIRKRPPRLPRPRPRPVPWPRP
shrunken log2 fold change: 0.572

RRIRKRPPRLPRPRPRPVRQPRP
shrunken log2 fold change: -0.0361

RRIRKRPPRLPRPRPRPVSCPRP
shrunken log2 fold change: 0.129

RRIRKRPPRLPRPRPRPVTPPRP
shrunken log2 fold change: 0.307

RRIRKRPPRLPRPRPRPVTVPRP
shrunken log2 fold change: -0.0834

RRIRKRPPRLPRPRPRPVWTPRP
shrunken log2 fold change: 0.485

RRIRKRPPRLPRPRPRPWACPRP
shrunken log2 fold change: 0.0099

RRIRKRPPRLPRPRPRPWAFPRP
shrunken log2 fold change: -0.016

RRIRKRPPRLPRPRPRPWAPPRP
shrunken log2 fold change: 0.0466

RRIRKRPPRLPRPRPRPWFMPRP
shrunken log2 fold change: -0.202

RRIRKRPPRLPRPRPRPWFQPRP
shrunken log2 fold change: -0.0934

RRIRKRPPRLPRPRPRPWGVPRP
shrunken log2 fold change: 0.291

RRIRKRPPRLPRPRPRPWHRPRP
shrunken log2 fold change: -0.0754

RRIRKRPPRLPRPRPRPWIDPRP
shrunken log2 fold change: -0.00174

RRIRKRPPRLPRPRPRPWIPPRP
shrunken log2 fold change: 0.0372

RRIRKRPPRLPRPRPRPWLGPRP
shrunken log2 fold change: 1.57

RRIRKRPPRLPRPRPRPWLHPRP
shrunken log2 fold change: 0.24

RRIRKRPPRLPRPRPRPWLRPRP
shrunken log2 fold change: 0.143

RRIRKRPPRLPRPRPRPWNVPRP
shrunken log2 fold change: 0.0194

RRIRKRPPRLPRPRPRPWQWPRP
shrunken log2 fold change: 0.0199

RRIRKRPPRLPRPRPRPWRLPRP
shrunken log2 fold change: -0.0807

RRIRKRPPRLPRPRPRPWRYPRP
shrunken log2 fold change: -0.00865

RRIRKRPPRLPRPRPRPWSFPRP
shrunken log2 fold change: 0.121

RRIRKRPPRLPRPRPRPWSIPRP
shrunken log2 fold change: -0.304

RRIRKRPPRLPRPRPRPWSMPRP
shrunken log2 fold change: -0.0905

RRIRKRPPRLPRPRPRPWTLPRP
shrunken log2 fold change: 0.00115
